We go through one molecule from patent US11904004B2, “Anti-CD277 antibodies” (INSTITUT NATIONAL DE LA SANTE ET DE LA RECHERCHE MEDICALE …, priority 2010, dated 2024).

Common to all, as to assay type: cell-based, human
Assay [1] has as its system Daudi, K562 or Raji cells lines. As to the kind of experiment: Anti-tumor cytolysis by Vγ9Vδ2 T cells against tumor cell lines (CD107a/b degranulation). As for the experimental part: We used for γδ T cells labelling in purity test after expansion, anti-CD3 PE-Cy7 and anti-Vδ2 FITC mAb (BD Pharmingen). For CD277 characterisation in different subsets PBMC were incubated with the following antibodies and molecules: anti-CD3 PE-Cy5 (BD Pharmingen), anti-CD4 PB (BD Pharmingen), anti-CD8 PB (BD Pharmingen), anti-Vδ2 FITC (BD Pharmingen), anti-CD27 APC ALEXA FLUOR® 750 (CALTAG Laboratory), anti-CCR7 PECy7 (BD Pharmingen), anti-CD28 PE (Beckman Coulter), anti-CD45RA ECD (Beckman Coulter), LIVE/DEAD® Fixable Dead Cell Stain Kit (L34957, Invitrogen) and anti-CD277 labelled with ALEXA FLUOR® 647 (Protein labelling Kit ALEXA FLUOR® 647, Molecular Probes, Invitrogen). For analysis of CD107a and CD107b expression, γδ T cells and target cells were co-incubated at 37° C. with anti-CD107a FITC and anti-CD107b FITC in presence of monensin (10 μM, GOLIGISTOP®, BD Bioscience). […] All samples were measured on FACSCANTO® or FACSARIA® flow cytometers (BD Biosciences) using FACSDIVA® software. […]
Target cells were labelled with 20 μCi of 51Cr (PerkinElmer) for 1 h at 37° C. […] The radioactivity released by target cells was measured, 4 h later, on beta plate counter. The percentage of specific 51Cr lysis was calculated using the following equation: percent specific lysis=100×[(test release)−(spontaneous release)]/[(maximal release)−(spontaneous release)].

The test system of the next assay is primary AML blasts. As to the kind of experiment: Chromium release assay, lysis of primary AML blasts by NK cells. As for the experimental part:
Effector γδ T cells were established and maintained as previously described^28. PBMC from HV were stimulated with ZOL (1 μm) and rhlL-2 (200 IU/ml) at Day 0. From Day 5, rhIL-2 was renewed every two days and cells were kept at 1.5×10^6/m1 for 15 days. NK cells were isolated using EASYSEP® Human NK cell enrichment kit (StemCell Technologies). The purity of γδ T cells and NK cells was determined by flow cytometry and respectively greater than 80% and 98%. The Burkitt lymphoma cell line, DAUDI, the human AML cell line, U937, and the erythroleukemic cell line, K562, were obtained from the American Type Culture Collection and cultured (0.5×10^6/ml) in RPMI 1640 medium with 10% FCS. […]
0.5×10^6 target cells were incubated with 50 pCi of ^51Cr (Perkin-Elmer) for AML blasts and 10 pCi for DAUDI and K562 cells for 90 minutes and mixed with effector cells in a Effector:Target (E:T) ratio of […]. After 4 hours of incubation at 37° C., 50p1 supernatant of each sample was transferred in LUMA® plates and radioactivity was determined by a gamma counter. The percentage of specific lysis was calculated using the formula [(experimental−spontaneous release/total−spontaneous release)×100] and expressed as the mean of triplicate.

The next assay concerns Vγ9Vδ2 T cells. Put plainly: Flow cytometry of Vγ9Vδ2 T cells co-cultured with AML blasts (trogocytosis, CD107a, cytokines). The protocol:
2×10^5 PBMC were washed in PBS (Cambrex Bio Science) and incubated at 4° C. for 20 min with specified mAb. Following incubation and washing, samples were analyzed on LSRFORTESSA® or FACS CANTO® II (Becton Dickinson) using DIVA® software (BD bioscience, Mountain View, Calif.). For analysis of CD107 expression, γδ T cells were incubated at 37° C. in the presence of anti-CD107a and GOLGISTOP® with or without anti-BTN3A 20.1 mAb. After 4 hours, cells were collected, washed in PBS and analyzed by flow cytometry. To study cytokine production, cells were further permeabilized with PERMWASH® (BD bioscience) to allow intracellular staining with labeled antibodies. Trogocytosis of PKH67 (Sigma Aldrich) labeled blasts by γδ T cells was quantified as previously described^29.
For orientation: A flow cytometer gives signals particle by particle.

Setting [2] is: 4-hour co-culture with AML blasts.

B1: mAb 20.1: murine anti-CD277 antibody obtainable from the hybridoma CNCM I-4402; agonist (antibody, V domains shown)
VH: QVQLQQSGAELVKPGASVKLSCKASGYTFTRYYLYWVKQRPGQGLEWIGEINPNNGGTKFNEKFKSKATLTVDKSSRTTYIQLSSLTSEDSAVYYCSREDDYDGTPDAMDYWGQGTAVTVSS
VL: DIQMNQSPSSLSASLGDTITITCHASQNINLWLSWYQQRPGNIPKLLIYRASNLHTGVPSRFSGSGSATGFTLTISSLQPEDIATYYCQQGHSYPYTFGGGTKLDIK
With B1, the “function/activation of Vγ9Vδ2 T cells against tumor targets (CD107a/b degranulation assay)” value in assay [1] is on record as “potentiated or revealed”. Moreover, the “NK cells-mediated AML blasts lysis” value with primary AML blasts is reported as “no effect”. Further, in the assay with Vγ9Vδ2 T cells (setting [2]), the “cytokine production of IFNγ by Vγ9Vδ2 T cells” value is given as “greater”, the “cytokine production of TNFα by Vγ9Vδ2 T cells” value is “greater” and the “degranulation assessed by the expression of CD107a” value is listed as “greater ability to degranulate”. Also, the “trogocytosis of AML blasts by Vγ9Vδ2 T cells” value in the assay on Vγ9Vδ2 T cells (1 hour co-culture, vs IgG1) is on record as “significantly enhanced”.
